Assay results taken from patent publication US20120171195A1.
One block for each substance: values may come before it.

Key:
HLA-B*5101 (human) [1] = assay: Luminex beads; MAb 1/800; competitor IgG-free serum
HLA-B*3701 (human) [2] = assay: as above
HLA-Cw*1701 (human) = assay: as above
HLA-B*1801 (human) = assay: as above
HLA-Cw*1802 (human) [3] = target: HLA-Cw*1802 (human) (UniProt P10321); assay: as above
HLA-Cw*1402 (human) [4] = target: HLA-Cw*1402 (human) (UniProt P10321); assay: as above
HLA-B*5201 (human) = assay: as above
HLA-B*0801 (human) = HLA-B*0801 (human) (UniProt P01889); assay: as above
HLA-B*4002 (human) = HLA-B*4002 (human) (UniProt P01889); assay: as above
HLA-B*5801 (human) = assay: as above
HLA-B*1402 (human) [5] = assay: as above
HLA-B*2708 (human) = HLA-B*2708 (human) (UniProt P01889); assay: as above
HLA-B*5101 (human) [6] = assay: Luminex beads; MAb 1/800; competitor rHLA-E
HLA-B*3701 (human) [7] = assay: Luminex beads; MAb 1/800; competitor rHLA-E
HLA-Cw*1802 (human) [8] = target: HLA-Cw*1802 (human) (UniProt P10321); assay: Luminex beads; MAb 1/800; competitor rHLA-E
HLA-Cw*1402 (human) [9] = target: HLA-Cw*1402 (human) (UniProt P10321); assay: Luminex beads; MAb 1/800; competitor rHLA-E
HLA-Cw*0501 (human) = assay: Luminex beads; MAb 1/800; competitor rHLA-E
HLA-Cw*1601 (human) = HLA-Cw*1601 (human) (UniProt P10321); assay: Luminex beads; MAb 1/800; competitor rHLA-E
HLA-B*3701 (human) [10] = assay: Luminex beads; MAb 1/400; competitor rHLA-E
HLA-Cw*0302 (human) = HLA-Cw*0302 (human) (UniProt P10321); assay: Luminex beads; MAb 1/400; competitor rHLA-E
HLA-B*1402 (human) [11] = assay: Luminex beads; MAb 1/400; competitor rHLA-E
HLA-B*1801 (B18) (human) = assay: Luminex single-antigen beads; rank of MEM-E/02 reactivity among HLA-Ia alleles
[12] = target: HLA-Cw*0801 (Cw8) (human) (UniProt P10321); assay: as above
HLA-A*3201 (A32) (human) = assay: as above
HLA-B*6701 (B67) (human) = HLA-B*6701 (B67) (human) (UniProt P01889); assay: as above
HLA-B*5001 (B50) (human) = assay: as above
HLA-B*5901 (B59) (human) = assay: as above
HLA-B*2708 (B27) (human) = HLA-B*2708 (B27) (human) (UniProt P01889); assay: as above
HLA-B*1513 (B77) (human) = assay: as above
HLA-A*2601 (A26) (human) = assay: as above
HLA-B*1516 (B63) (human) = assay: as above
[13] = target: HLA-Cw*1502 (Cw15) (human); assay: as above
[14] = target: HLA-Cw*1203 (Cw12) (human) (UniProt P10321); assay: as above
HLA-A*2901 (A29) (human) = HLA-A*2901 (A29) (human) (UniProt P04439); assay: as above
[15] = target: HLA-Cw*0401 (Cw4) (human); assay: as above
HLA-B*4403 (B44) (human) = assay: as above
HLA-A*2403 (A24) (human) = assay: as above
[16] = target: HLA-Cw*1701 (Cw17) (human); assay: as above
HLA-B*0801 (B8) (human) = HLA-B*0801 (B8) (human) (UniProt P01889); assay: as above
HLA-B*1401 (B64) (human) = HLA-B*1401 (B64) (human) (UniProt P01889); assay: as above
HLA-A*2501 (A25) (human) = assay: as above
HLA-B*3801 (B38) (human) = assay: as above

MFI (HLA-B*5101 (human) [1]): 483 MFI
MFI (HLA-B*3701 (human) [2]): 784 MFI
MFI (HLA-Cw*1701 (human)): 676 MFI
MFI (HLA-B*1801 (human)): 777 MFI
MFI (HLA-Cw*1802 (human) [3]): 3810 MFI
MFI (HLA-Cw*1402 (human) [4]): 803 MFI
MFI (HLA-B*5201 (human)): 609 MFI
MFI (HLA-B*0801 (human)): 262 MFI
MFI (HLA-B*4002 (human)): 655 MFI
MFI (HLA-B*5801 (human)): 938 MFI
MFI (HLA-B*1402 (human) [5]): 517 MFI
MFI (HLA-B*2708 (human)): 417 MFI
MFI (HLA-B*5101 (human) [6]): 99 MFI
MFI (HLA-B*3701 (human) [7]): 29 MFI
MFI (HLA-Cw*1802 (human) [8]): 35 MFI
MFI (HLA-Cw*1402 (human) [9]): 48 MFI
MFI (HLA-Cw*0501 (human)): 70 MFI
MFI (HLA-Cw*1601 (human)): 87 MFI
MFI (HLA-B*3701 (human) [10]): 39 MFI
MFI (HLA-Cw*0302 (human)): 130 MFI
MFI (HLA-B*1402 (human) [11]): 88 MFI
Substance: murine monoclonal antibody (MAb) MEM-E/02

MEM-E/02 Reactivity Rank (HLA-B*1801 (B18) (human)): 36 rank
MEM-E/02 Reactivity Rank [12]: 8 rank
MEM-E/02 Reactivity Rank (HLA-A*3201 (A32) (human)): > 65 rank
MEM-E/02 Reactivity Rank (HLA-B*6701 (B67) (human)): > 65 rank
MEM-E/02 Reactivity Rank (HLA-B*5001 (B50) (human)): > 65 rank
MEM-E/02 Reactivity Rank (HLA-B*5901 (B59) (human)): 20 rank
MEM-E/02 Reactivity Rank (HLA-B*2708 (B27) (human)): > 65 rank
MEM-E/02 Reactivity Rank (HLA-B*1513 (B77) (human)): 41 rank
MEM-E/02 Reactivity Rank (HLA-A*2601 (A26) (human)): 60 rank
MEM-E/02 Reactivity Rank (HLA-B*1516 (B63) (human)): 43 rank
MEM-E/02 Reactivity Rank [13]: > 65 rank
MEM-E/02 Reactivity Rank [14]: 36 rank
MEM-E/02 Reactivity Rank (HLA-A*2901 (A29) (human)): 48 rank
MEM-E/02 Reactivity Rank [15]: > 65 rank
MEM-E/02 Reactivity Rank (HLA-B*4403 (B44) (human)): > 65 rank
MEM-E/02 Reactivity Rank (HLA-A*2403 (A24) (human)): 63 rank
MEM-E/02 Reactivity Rank [16]: 28 rank
MEM-E/02 Reactivity Rank (HLA-B*0801 (B8) (human)): > 65 rank
MEM-E/02 Reactivity Rank (HLA-B*1401 (B64) (human)): 7 rank
MEM-E/02 Reactivity Rank (HLA-A*2501 (A25) (human)): > 65 rank
MEM-E/02 Reactivity Rank (HLA-B*3801 (B38) (human)): > 65 rank
Substance: murine monoclonal antibody MAb MEM-E/02
